According to patent publication US20260125457A1 (Janssen / Centocor, published 2026):

Experiments:
[1] = biological target: CALRdel52 (mutant calreticulin, 52 base pair deletion, Type 1) expressed with MPL on engineered cancer cells (UniProt P27797); assay: cell-based or functional assay
[2] = biological target: CALRins5 (mutant calreticulin, 5 base pair insertion, Type 2) expressed with MPL on engineered cancer cells (UniProt P27797); assay: cell-based or functional assay
CALRins5 (mutant calreticulin, 5 base pair insertion, Type 2) expressed with MPL on engineered cancer cells, sequence (P27797 other isoform, or with tags, fused parts or gaps mutant limits assumed): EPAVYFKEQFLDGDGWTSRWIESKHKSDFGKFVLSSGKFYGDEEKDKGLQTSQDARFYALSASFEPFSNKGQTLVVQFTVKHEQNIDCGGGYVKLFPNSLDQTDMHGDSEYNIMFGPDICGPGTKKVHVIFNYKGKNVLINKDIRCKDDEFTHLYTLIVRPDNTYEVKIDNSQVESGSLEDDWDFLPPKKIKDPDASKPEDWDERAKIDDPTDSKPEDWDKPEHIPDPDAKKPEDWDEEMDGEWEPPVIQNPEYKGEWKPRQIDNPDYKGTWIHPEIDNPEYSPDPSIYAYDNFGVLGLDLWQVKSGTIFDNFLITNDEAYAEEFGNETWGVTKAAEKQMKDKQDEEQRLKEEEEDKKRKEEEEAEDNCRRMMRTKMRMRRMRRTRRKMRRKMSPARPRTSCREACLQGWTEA

CALRdel52 (mutant calreticulin, 52 base pair deletion, Type 1) expressed with MPL on engineered cancer cells, sequence (P27797 other isoform, or with tags, fused parts or gaps mutant limits assumed): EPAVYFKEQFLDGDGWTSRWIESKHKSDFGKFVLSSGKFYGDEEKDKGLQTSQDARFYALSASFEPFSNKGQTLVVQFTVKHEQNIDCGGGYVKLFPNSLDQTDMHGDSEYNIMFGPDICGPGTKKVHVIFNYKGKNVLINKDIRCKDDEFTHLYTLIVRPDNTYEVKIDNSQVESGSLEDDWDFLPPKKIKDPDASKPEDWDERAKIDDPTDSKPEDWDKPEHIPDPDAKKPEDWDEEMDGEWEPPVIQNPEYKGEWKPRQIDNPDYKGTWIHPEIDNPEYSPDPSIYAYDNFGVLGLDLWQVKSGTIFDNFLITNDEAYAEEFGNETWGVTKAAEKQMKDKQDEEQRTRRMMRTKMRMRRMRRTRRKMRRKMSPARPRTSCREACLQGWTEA

| Binder | Cytotoxicity EC50, K562 MPL CALRdel52 cells [1] [ng/mL] | Cytotoxicity EC50, OCI-M2 MPL CALRdel52 cells [1] [ng/mL] | Cytotoxicity EC50, K562 MPL CALRins5 cells [2] [ng/mL] | Cytotoxicity EC50, OCI-M2 MPL CALRins5 cells [2] [ng/mL] |
| --- | --- | --- | --- | --- |
| CALRB120 (MP1018C Fab x CD3W245-HL-scFv, high affinity) (bispecific antibody, part only; not given: CD3 scFv arm and IgG1 constant regions, V domains shown, not shown: another chain or arm of the molecule; a dimerising Fc or GST; small tags and cut ends) VL: DVVMTQTPSSVSAAVGGTVTINCQASQSLYNNKNLAWYQQKPGQPPKLLIYYASALASGVSSRFKGSGSGTQFTLTISGVQSDDAATYYCQGEFNCNSADCNSFGGGTEVVVK VH: QSVEESGGRLVTPGTPLTITCTVSGFSLSSYAMSWVRQAPGKGLEWIGVIDSGGTTYYATWAKSRFTISKTSSTKVALKITSPTTEDTATYFCARESYAGYDGYGHPIPYGMDPWGPGTLVTVSS | 7.7 | 9.1 | 11.9 | 14.5 |
| CALRB118 (MP1016C Fab x CD3W245-HL-scFv, high affinity) (bispecific antibody, part only; not given: CD3 scFv arm and IgG1 constant regions, V domains shown, not shown: another chain or arm of the molecule; a dimerising Fc or GST; small tags and cut ends) VL: DPVLTQTESPVSAAVGGTVTINCQASQSVYDDNNLAWYQQKPGQPPKRLIYPASTLASGVSSRFSGSGSGSQFTLTISDVQSDDAATYYCQGEFSCTSADCVAFGGGTEVVVK VH: QEQLKESGGRLVTPGTPLTLTCTASGFSLSNYYMSWVRQAPGKGLEWIGGISSRAGTWYASWAKGRFTISGTSSTTMDLKITSPTTEDTATYFCARGLKIWGPGTLVTVSS | 9.9 | 505 | 15.7 | 13.6 |
| CALRB78 (MP1016C Fab x CD3W245-LH-scFv, medium affinity) (bispecific antibody, part only; not given: anti-CD3 scFv arm, constant regions, V domains shown, not shown: another chain or arm of the molecule; a dimerising Fc or GST; small tags and cut ends) VL: DPVLTQTESPVSAAVGGTVTINCQASQSVYDDNNLAWYQQKPGQPPKRLIYPASTLASGVSSRFSGSGSGSQFTLTISDVQSDDAATYYCQGEFSCTSADCVAFGGGTEVVVK VH: QEQLKESGGRLVTPGTPLTLTCTASGFSLSNYYMSWVRQAPGKGLEWIGGISSRAGTWYASWAKGRFTISGTSSTTMDLKITSPTTEDTATYFCARGLKIWGPGTLVTVSS | 39.3 | 58.1 | 64.8 | 79.2 |
| CALRB79 (MP1016 Fab x CD3W245-LH-scFv, medium affinity) (bispecific antibody, part only; not given: anti-CD3 scFv arm, constant regions, V domains shown, not shown: another chain or arm of the molecule; a dimerising Fc or GST; small tags and cut ends) VL: DPVLTQTESPVSAAVGGTVTINCQASQSVYDDNNLAWYQQKPGQPPKRLIYPASTLASGVSSRFSGSGSGSQFTLTISDVQSDDAATYYCQGEFSCTSADCVAFGGGTEVVVK VH: QEQLKESGGRLVTPGTPLTLTCTASGFSLSNYYMSWVRQAPGKGLEWIGGISSRAGTWYASWAKGRFTISGTSTTMDLKITSPTTEDTATYFCARGLKIWGPGTLVTVSS | 44.4 | 112 | 41.6 | 91.1 |
| CALRB119 (MP1016 Fab x CD3W245-HL-scFv, high affinity) (bispecific antibody, part only; not given: anti-CD3 scFv arm, constant regions, V domains shown, not shown: another chain or arm of the molecule; a dimerising Fc or GST; small tags and cut ends) VL: DPVLTQTESPVSAAVGGTVTINCQASQSVYDDNNLAWYQQKPGQPPKRLIYPASTLASGVSSRFSGSGSGSQFTLTISDVQSDDAATYYCQGEFSCTSADCVAFGGGTEVVVK VH: QEQLKESGGRLVTPGTPLTLTCTASGFSLSNYYMSWVRQAPGKGLEWIGGISSRAGTWYASWAKGRFTISGTSTTMDLKITSPTTEDTATYFCARGLKIWGPGTLVTVSS | 6.4 | 504 | 10.4 | 22.5 |
| CALRB77 (MP1010 Fab x CD3W245-LH-scFv, medium affinity) (bispecific antibody, part only; not given: anti-CD3 scFv arm, constant regions, V domains shown, not shown: another chain or arm of the molecule; a dimerising Fc or GST; small tags and cut ends) VL: DPMLTQTPSSVSAAVGGTVTIGCQSSQSVYDKNWLSWYQQKPGQPPSRLIYDASKLESGVPSRFSGSGSGTQFTLTISGVQSDDVATYYCAGGFTGNVYAFGGGTEVVVK VH: QSVEESGGRLVTPGTPLTLTCTVSGIDLSNNAISWVRQAPGKGLEYIGVIGNTGDTYYASWAKGRFTISKTSSTTVDLKMTSLTTEDTATYFCVRGPPSYSNSVKNIWGPGTLVTISS | 195 | 183 | 414 | 189 |
